Experimental data: patent publication US12630600B2 (MEDIMMUNE LIMITED, priority 2022, dated 2026)
Starred links: 1 amine or outer side, 2 acyl side, 3 side chain; linkers in the order of their positions; H or OH if unused. Non-standard residues stand in square brackets, D forms with d. Groups on a side chain read outwards from the residue. No end group written: not given here. *: point of attachment. C20 diacid = O=C(O)CCCCCCCCCCCCCCCCCCC(=O)*; C18 diacid = O=C(O)CCCCCCCCCCCCCCCCC(=O)*; γGlu = O=C(O)[C@H](CCC(=O)[*:2])N[*:1]; αMeF = C[C@](N)(Cc1ccccc1)C(=O)O; AEEA = NCCOCCOCC(=O)O; Aib = CC(C)(N)C(=O)O

Assays:
[1] = biological target: human GLP-1 receptor (human, UniProt P43220); assay: cell-based or functional assay
[2] = biological target: human glucagon receptor (human, UniProt P47871); assay: cell-based or functional assay

Binder	cAMP production EC50 [1]	cAMP production EC50 [2]
H[Aib]QGTFTSDVSK[αMeF]LDTK([AEEA-AEEA-γGlu-C18 diacid])RAQDFVRWLLR[Aib]A-OH (N-terminus assumed; SMILES CC(C)C[C@H](NC(=O)[C@H](Cc1c[nH]c2ccccc12)NC(=O)[C@H](CCCNC(=N)N)NC(=O)[C@@H](NC(=O)[C@H](Cc1ccccc1)NC(=O)[C@H](CC(=O)O)NC(=O)[C@H](CCC(N)=O)NC(=O)[C@H](C)NC(=O)[C@H](CCCNC(=N)N)NC(=O)[C@H](CCCCNC(=O)COCCOCCNC(=O)COCCOCCNC(=O)CC[C@H](NC(=O)CCCCCCCCCCCCCCCCC(=O)O)C(=O)O)NC(=O)[C@@H](NC(=O)[C@H](CC(=O)O)NC(=O)[C@H](CC(C)C)NC(=O)[C@](C)(Cc1ccccc1)NC(=O)[C@H](CCCCN)NC(=O)[C@H](CO)NC(=O)[C@@H](NC(=O)[C@H](CC(=O)O)NC(=O)[C@H](CO)NC(=O)[C@@H](NC(=O)[C@H](Cc1ccccc1)NC(=O)[C@@H](NC(=O)CNC(=O)[C@H](CCC(N)=O)NC(=O)C(C)(C)NC(=O)[C@@H](N)Cc1c[nH]cn1)[C@@H](C)O)[C@@H](C)O)C(C)C)[C@@H](C)O)C(C)C)C(=O)N[C@@H](CC(C)C)C(=O)N[C@@H](CCCNC(=N)N)C(=O)NC(C)(C)C(=O)N[C@@H](C)C(=O)O) [Peptide 497]	0.0374 nM	0.118 nM
H[Aib]QGTFTSDVSK[αMeF]LDTK([AEEA-AEEA-γGlu-C18 diacid])RAQDFVRWLLR[Aib]K-OH (N-terminus assumed; SMILES CC(C)C[C@H](NC(=O)[C@H](Cc1c[nH]c2ccccc12)NC(=O)[C@H](CCCNC(=N)N)NC(=O)[C@@H](NC(=O)[C@H](Cc1ccccc1)NC(=O)[C@H](CC(=O)O)NC(=O)[C@H](CCC(N)=O)NC(=O)[C@H](C)NC(=O)[C@H](CCCNC(=N)N)NC(=O)[C@H](CCCCNC(=O)COCCOCCNC(=O)COCCOCCNC(=O)CC[C@H](NC(=O)CCCCCCCCCCCCCCCCC(=O)O)C(=O)O)NC(=O)[C@@H](NC(=O)[C@H](CC(=O)O)NC(=O)[C@H](CC(C)C)NC(=O)[C@](C)(Cc1ccccc1)NC(=O)[C@H](CCCCN)NC(=O)[C@H](CO)NC(=O)[C@@H](NC(=O)[C@H](CC(=O)O)NC(=O)[C@H](CO)NC(=O)[C@@H](NC(=O)[C@H](Cc1ccccc1)NC(=O)[C@@H](NC(=O)CNC(=O)[C@H](CCC(N)=O)NC(=O)C(C)(C)NC(=O)[C@@H](N)Cc1c[nH]cn1)[C@@H](C)O)[C@@H](C)O)C(C)C)[C@@H](C)O)C(C)C)C(=O)N[C@@H](CC(C)C)C(=O)N[C@@H](CCCNC(=N)N)C(=O)NC(C)(C)C(=O)N[C@@H](CCCCN)C(=O)O) [Peptide 493]	0.0234 nM	0.166 nM
H[Aib]QGTFTSDVSK[αMeF]LDTK([AEEA-AEEA-γGlu-C18 diacid])RAQDFVRWLLR[Aib]K-NH2 (N-terminus assumed; SMILES CC(C)C[C@H](NC(=O)[C@H](Cc1c[nH]c2ccccc12)NC(=O)[C@H](CCCNC(=N)N)NC(=O)[C@@H](NC(=O)[C@H](Cc1ccccc1)NC(=O)[C@H](CC(=O)O)NC(=O)[C@H](CCC(N)=O)NC(=O)[C@H](C)NC(=O)[C@H](CCCNC(=N)N)NC(=O)[C@H](CCCCNC(=O)COCCOCCNC(=O)COCCOCCNC(=O)CC[C@H](NC(=O)CCCCCCCCCCCCCCCCC(=O)O)C(=O)O)NC(=O)[C@@H](NC(=O)[C@H](CC(=O)O)NC(=O)[C@H](CC(C)C)NC(=O)[C@](C)(Cc1ccccc1)NC(=O)[C@H](CCCCN)NC(=O)[C@H](CO)NC(=O)[C@@H](NC(=O)[C@H](CC(=O)O)NC(=O)[C@H](CO)NC(=O)[C@@H](NC(=O)[C@H](Cc1ccccc1)NC(=O)[C@@H](NC(=O)CNC(=O)[C@H](CCC(N)=O)NC(=O)C(C)(C)NC(=O)[C@@H](N)Cc1c[nH]cn1)[C@@H](C)O)[C@@H](C)O)C(C)C)[C@@H](C)O)C(C)C)C(=O)N[C@@H](CC(C)C)C(=O)N[C@@H](CCCNC(=N)N)C(=O)NC(C)(C)C(=O)N[C@@H](CCCCN)C(N)=O) [Peptide 495]	0.0232 nM	0.38 nM
H[Aib]QGTFTSDVSK[αMeF]LDTK([AEEA-AEEA-γGlu-C20 diacid])RAQDFVRWLLR[Aib]K-OH [Peptide 494]	0.0987 nM	0.212 nM
H[Aib]QGTFTSDVSK[αMeF]LDTK([AEEA-AEEA-γGlu-C20 diacid])RAQDFVRWLLR[Aib]A-OH (N-terminus assumed; SMILES CC(C)C[C@H](NC(=O)[C@H](Cc1c[nH]c2ccccc12)NC(=O)[C@H](CCCNC(=N)N)NC(=O)[C@@H](NC(=O)[C@H](Cc1ccccc1)NC(=O)[C@H](CC(=O)O)NC(=O)[C@H](CCC(N)=O)NC(=O)[C@H](C)NC(=O)[C@H](CCCNC(=N)N)NC(=O)[C@H](CCCCNC(=O)COCCOCCNC(=O)COCCOCCNC(=O)CC[C@H](NC(=O)CCCCCCCCCCCCCCCCCCC(=O)O)C(=O)O)NC(=O)[C@@H](NC(=O)[C@H](CC(=O)O)NC(=O)[C@H](CC(C)C)NC(=O)[C@](C)(Cc1ccccc1)NC(=O)[C@H](CCCCN)NC(=O)[C@H](CO)NC(=O)[C@@H](NC(=O)[C@H](CC(=O)O)NC(=O)[C@H](CO)NC(=O)[C@@H](NC(=O)[C@H](Cc1ccccc1)NC(=O)[C@@H](NC(=O)CNC(=O)[C@H](CCC(N)=O)NC(=O)C(C)(C)NC(=O)[C@@H](N)Cc1c[nH]cn1)[C@@H](C)O)[C@@H](C)O)C(C)C)[C@@H](C)O)C(C)C)C(=O)N[C@@H](CC(C)C)C(=O)N[C@@H](CCCNC(=N)N)C(=O)NC(C)(C)C(=O)N[C@@H](C)C(=O)O) [Peptide 498]	0.156 nM	0.17 nM
H[Aib]QGTFTSDVSK[αMeF]LDTK([AEEA-AEEA-γGlu-C18 diacid])RAQDFVQWLLR[Aib]A-OH (N-terminus assumed; SMILES CC(C)C[C@H](NC(=O)[C@H](Cc1c[nH]c2ccccc12)NC(=O)[C@H](CCC(N)=O)NC(=O)[C@@H](NC(=O)[C@H](Cc1ccccc1)NC(=O)[C@H](CC(=O)O)NC(=O)[C@H](CCC(N)=O)NC(=O)[C@H](C)NC(=O)[C@H](CCCNC(=N)N)NC(=O)[C@H](CCCCNC(=O)COCCOCCNC(=O)COCCOCCNC(=O)CC[C@H](NC(=O)CCCCCCCCCCCCCCCCC(=O)O)C(=O)O)NC(=O)[C@@H](NC(=O)[C@H](CC(=O)O)NC(=O)[C@H](CC(C)C)NC(=O)[C@](C)(Cc1ccccc1)NC(=O)[C@H](CCCCN)NC(=O)[C@H](CO)NC(=O)[C@@H](NC(=O)[C@H](CC(=O)O)NC(=O)[C@H](CO)NC(=O)[C@@H](NC(=O)[C@H](Cc1ccccc1)NC(=O)[C@@H](NC(=O)CNC(=O)[C@H](CCC(N)=O)NC(=O)C(C)(C)NC(=O)[C@@H](N)Cc1c[nH]cn1)[C@@H](C)O)[C@@H](C)O)C(C)C)[C@@H](C)O)C(C)C)C(=O)N[C@@H](CC(C)C)C(=O)N[C@@H](CCCNC(=N)N)C(=O)NC(C)(C)C(=O)N[C@@H](C)C(=O)O) [Peptide 499]	0.0406 nM	0.0788 nM
H[Aib]QGTFTSDVSK[αMeF]LDTK([AEEA-AEEA-γGlu-C20 diacid])RAQDFVRWLLR[Aib]K-NH2 (N-terminus assumed; SMILES CC(C)C[C@H](NC(=O)[C@H](Cc1c[nH]c2ccccc12)NC(=O)[C@H](CCCNC(=N)N)NC(=O)[C@@H](NC(=O)[C@H](Cc1ccccc1)NC(=O)[C@H](CC(=O)O)NC(=O)[C@H](CCC(N)=O)NC(=O)[C@H](C)NC(=O)[C@H](CCCNC(=N)N)NC(=O)[C@H](CCCCNC(=O)COCCOCCNC(=O)COCCOCCNC(=O)CC[C@H](NC(=O)CCCCCCCCCCCCCCCCCCC(=O)O)C(=O)O)NC(=O)[C@@H](NC(=O)[C@H](CC(=O)O)NC(=O)[C@H](CC(C)C)NC(=O)[C@](C)(Cc1ccccc1)NC(=O)[C@H](CCCCN)NC(=O)[C@H](CO)NC(=O)[C@@H](NC(=O)[C@H](CC(=O)O)NC(=O)[C@H](CO)NC(=O)[C@@H](NC(=O)[C@H](Cc1ccccc1)NC(=O)[C@@H](NC(=O)CNC(=O)[C@H](CCC(N)=O)NC(=O)C(C)(C)NC(=O)[C@@H](N)Cc1c[nH]cn1)[C@@H](C)O)[C@@H](C)O)C(C)C)[C@@H](C)O)C(C)C)C(=O)N[C@@H](CC(C)C)C(=O)N[C@@H](CCCNC(=N)N)C(=O)NC(C)(C)C(=O)N[C@@H](CCCCN)C(N)=O) [Peptide 496]	0.0649 nM	0.482 nM
H[Aib]QGTFTSDVSK[αMeF]LDTK([AEEA-AEEA-γGlu-C20 diacid])RAQDFVQWLLR[Aib]A-OH (N-terminus assumed; SMILES CC(C)C[C@H](NC(=O)[C@H](Cc1c[nH]c2ccccc12)NC(=O)[C@H](CCC(N)=O)NC(=O)[C@@H](NC(=O)[C@H](Cc1ccccc1)NC(=O)[C@H](CC(=O)O)NC(=O)[C@H](CCC(N)=O)NC(=O)[C@H](C)NC(=O)[C@H](CCCNC(=N)N)NC(=O)[C@H](CCCCNC(=O)COCCOCCNC(=O)COCCOCCNC(=O)CC[C@H](NC(=O)CCCCCCCCCCCCCCCCCCC(=O)O)C(=O)O)NC(=O)[C@@H](NC(=O)[C@H](CC(=O)O)NC(=O)[C@H](CC(C)C)NC(=O)[C@](C)(Cc1ccccc1)NC(=O)[C@H](CCCCN)NC(=O)[C@H](CO)NC(=O)[C@@H](NC(=O)[C@H](CC(=O)O)NC(=O)[C@H](CO)NC(=O)[C@@H](NC(=O)[C@H](Cc1ccccc1)NC(=O)[C@@H](NC(=O)CNC(=O)[C@H](CCC(N)=O)NC(=O)C(C)(C)NC(=O)[C@@H](N)Cc1c[nH]cn1)[C@@H](C)O)[C@@H](C)O)C(C)C)[C@@H](C)O)C(C)C)C(=O)N[C@@H](CC(C)C)C(=O)N[C@@H](CCCNC(=N)N)C(=O)NC(C)(C)C(=O)N[C@@H](C)C(=O)O) [Peptide 500]	0.102 nM	0.101 nM
